Assay results taken from article PMC3999168.

Test system: LL-37 (native) (human)
Assay: EMSA
Settings: EMSA with 5' 6-FAM PCR products, as previously published; buffer, salt, pH and temperature not in the material

Substance: algT (algU) fragment
- Kd: 12.8 µM

Substance: mucA fragment
- Kd: 12.8 µM

Substance: lecB fragment
- Kd: 12.8 µM
